Test results: patent US20100184658A1 (published 2010)

Legend:
Experiment in all cases: cell-based or functional assay
ABL1 G250E = ABL1 G250E (UniProt P00519 1-1130, limits assumed)
PRKCA (PKC alpha) = PRKCA (PKC alpha) (UniProt P17252 1-672, limits assumed)
PRKCZ (PKC zeta) = molecular target: T1, PRKCZ (PKC zeta) (human (printed as (h)), UniProt Q05513 1-592, limits assumed)
T1 sequence (looked up): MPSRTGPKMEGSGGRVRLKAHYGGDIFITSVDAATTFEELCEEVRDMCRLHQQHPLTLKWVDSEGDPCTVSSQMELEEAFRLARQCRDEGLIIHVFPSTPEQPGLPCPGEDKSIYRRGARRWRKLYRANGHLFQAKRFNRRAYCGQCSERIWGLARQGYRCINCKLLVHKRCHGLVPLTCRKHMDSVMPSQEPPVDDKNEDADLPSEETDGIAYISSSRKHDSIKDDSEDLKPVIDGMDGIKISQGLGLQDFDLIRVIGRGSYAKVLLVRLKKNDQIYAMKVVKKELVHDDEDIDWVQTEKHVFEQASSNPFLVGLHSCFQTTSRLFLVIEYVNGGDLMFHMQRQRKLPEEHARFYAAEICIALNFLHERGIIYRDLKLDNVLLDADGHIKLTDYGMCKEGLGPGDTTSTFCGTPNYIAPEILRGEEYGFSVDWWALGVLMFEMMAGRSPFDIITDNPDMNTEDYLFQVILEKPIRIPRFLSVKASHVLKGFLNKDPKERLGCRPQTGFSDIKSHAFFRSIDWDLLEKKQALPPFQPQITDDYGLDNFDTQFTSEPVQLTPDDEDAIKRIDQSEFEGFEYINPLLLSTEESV

[1] = molecular target: MINK1 Misshapen-like kinase 1 (UniProt Q8N4C8 1-320, limits assumed)
Sequence of MINK1 Misshapen-like kinase 1 (Q8N4C8 1-320 limits assumed): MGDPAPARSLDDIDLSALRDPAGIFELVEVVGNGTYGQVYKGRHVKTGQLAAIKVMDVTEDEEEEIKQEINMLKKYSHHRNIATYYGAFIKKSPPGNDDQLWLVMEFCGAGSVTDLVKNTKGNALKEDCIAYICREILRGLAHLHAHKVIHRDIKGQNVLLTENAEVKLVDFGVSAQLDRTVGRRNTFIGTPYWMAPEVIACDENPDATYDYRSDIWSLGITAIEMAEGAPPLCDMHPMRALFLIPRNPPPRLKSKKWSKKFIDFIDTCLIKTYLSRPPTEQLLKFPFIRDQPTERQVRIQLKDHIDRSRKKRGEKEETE

[2] = molecular target: BRAF V-raf murine sarcoma viral oncogene homolog B1 (UniProt P15056 416-766, limits assumed)
Sequence of BRAF V-raf murine sarcoma viral oncogene homolog B1 (P15056 416-766 limits assumed): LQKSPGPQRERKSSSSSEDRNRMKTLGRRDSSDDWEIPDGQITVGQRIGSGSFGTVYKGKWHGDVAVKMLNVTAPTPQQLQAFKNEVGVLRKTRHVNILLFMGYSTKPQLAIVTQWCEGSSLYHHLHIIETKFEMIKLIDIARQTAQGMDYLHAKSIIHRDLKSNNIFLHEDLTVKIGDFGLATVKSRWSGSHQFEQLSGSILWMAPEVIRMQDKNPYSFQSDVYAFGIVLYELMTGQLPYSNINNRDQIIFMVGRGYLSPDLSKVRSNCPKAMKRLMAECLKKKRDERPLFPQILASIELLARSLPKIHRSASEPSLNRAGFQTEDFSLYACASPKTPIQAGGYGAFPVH

[3] = molecular target: STK25 (YSK1) Serine/threonine kinase 25 (STE20 homolog, yeast) (UniProt O00506 1-426, limits assumed)
Sequence of STK25 (YSK1) Serine/threonine kinase 25 (STE20 homolog, yeast) (O00506 whole entry): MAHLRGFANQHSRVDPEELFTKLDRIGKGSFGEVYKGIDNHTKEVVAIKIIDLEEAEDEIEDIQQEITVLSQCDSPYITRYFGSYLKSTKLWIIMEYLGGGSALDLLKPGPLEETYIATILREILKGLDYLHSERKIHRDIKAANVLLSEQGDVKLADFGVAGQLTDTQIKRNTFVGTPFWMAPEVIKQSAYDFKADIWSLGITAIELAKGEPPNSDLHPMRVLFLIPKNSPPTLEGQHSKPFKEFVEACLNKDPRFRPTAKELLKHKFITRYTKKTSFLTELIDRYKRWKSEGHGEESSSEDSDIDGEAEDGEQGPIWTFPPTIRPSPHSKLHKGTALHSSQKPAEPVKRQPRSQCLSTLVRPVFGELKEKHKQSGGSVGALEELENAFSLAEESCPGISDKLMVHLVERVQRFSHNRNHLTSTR

NEK2 = molecular target: T2, NEK2 (UniProt P51955 1-445, limits assumed)
T2 sequence (looked up): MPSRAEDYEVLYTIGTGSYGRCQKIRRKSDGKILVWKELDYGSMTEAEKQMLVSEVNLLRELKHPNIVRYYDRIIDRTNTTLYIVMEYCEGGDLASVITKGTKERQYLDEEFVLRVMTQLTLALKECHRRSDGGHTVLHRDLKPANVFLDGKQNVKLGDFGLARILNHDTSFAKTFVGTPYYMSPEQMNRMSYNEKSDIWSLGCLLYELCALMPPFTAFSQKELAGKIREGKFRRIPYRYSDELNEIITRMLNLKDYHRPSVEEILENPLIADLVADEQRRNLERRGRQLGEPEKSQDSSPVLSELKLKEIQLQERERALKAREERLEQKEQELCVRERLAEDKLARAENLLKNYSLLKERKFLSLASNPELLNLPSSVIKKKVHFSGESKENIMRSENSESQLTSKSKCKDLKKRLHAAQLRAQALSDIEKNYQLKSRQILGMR

[4] = molecular target: PRKCB1 (PKC beta I) Protein kinase C, beta 1 (UniProt P05771 1-671)
Sequence of PRKCB1 (PKC beta I) Protein kinase C, beta 1 (P05771 whole entry): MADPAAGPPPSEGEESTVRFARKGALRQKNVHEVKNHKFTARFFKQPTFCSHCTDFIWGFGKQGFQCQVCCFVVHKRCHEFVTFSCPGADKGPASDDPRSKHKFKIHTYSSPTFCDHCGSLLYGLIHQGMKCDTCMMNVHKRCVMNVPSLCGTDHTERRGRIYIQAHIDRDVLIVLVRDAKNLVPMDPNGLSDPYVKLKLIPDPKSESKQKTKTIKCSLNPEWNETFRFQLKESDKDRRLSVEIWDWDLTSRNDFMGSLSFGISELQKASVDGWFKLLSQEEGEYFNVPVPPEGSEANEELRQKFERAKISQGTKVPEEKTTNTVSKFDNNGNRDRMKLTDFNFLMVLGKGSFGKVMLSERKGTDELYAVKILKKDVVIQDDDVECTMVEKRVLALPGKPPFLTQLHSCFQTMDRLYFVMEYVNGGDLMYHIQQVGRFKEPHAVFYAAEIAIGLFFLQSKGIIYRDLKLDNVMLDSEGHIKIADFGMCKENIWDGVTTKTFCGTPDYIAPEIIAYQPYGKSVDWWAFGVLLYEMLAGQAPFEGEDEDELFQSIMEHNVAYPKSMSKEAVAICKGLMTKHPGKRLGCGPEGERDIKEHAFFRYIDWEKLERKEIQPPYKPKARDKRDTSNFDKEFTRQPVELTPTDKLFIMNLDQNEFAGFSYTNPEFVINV

MERTK (cMER) = molecular target: T3, MERTK (cMER) (UniProt Q12866 578-872, limits assumed)
T3 sequence (looked up): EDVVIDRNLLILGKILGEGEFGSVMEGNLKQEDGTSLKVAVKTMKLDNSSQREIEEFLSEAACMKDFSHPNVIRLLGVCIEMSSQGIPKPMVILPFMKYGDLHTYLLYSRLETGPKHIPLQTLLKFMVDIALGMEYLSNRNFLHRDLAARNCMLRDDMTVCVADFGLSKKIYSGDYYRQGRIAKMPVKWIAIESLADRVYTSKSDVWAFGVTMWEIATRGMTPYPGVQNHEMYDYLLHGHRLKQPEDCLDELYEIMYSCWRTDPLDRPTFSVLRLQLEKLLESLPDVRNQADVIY

TYK2 = molecular target: T4, TYK2 (UniProt P29597 871-1187, limits assumed)
T4 sequence (looked up): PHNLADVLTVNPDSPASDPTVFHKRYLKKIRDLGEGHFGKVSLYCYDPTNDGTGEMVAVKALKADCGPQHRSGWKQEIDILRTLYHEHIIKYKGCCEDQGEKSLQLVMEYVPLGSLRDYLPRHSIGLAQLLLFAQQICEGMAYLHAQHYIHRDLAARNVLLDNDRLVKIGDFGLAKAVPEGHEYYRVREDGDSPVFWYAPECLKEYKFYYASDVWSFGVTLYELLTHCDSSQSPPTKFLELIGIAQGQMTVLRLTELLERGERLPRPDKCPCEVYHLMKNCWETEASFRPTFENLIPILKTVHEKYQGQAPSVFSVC

ROCK2 = ROCK2 (UniProt O75116 5-554, limits assumed)
Sequence of ROCK2 (O75116 5-554 limits assumed): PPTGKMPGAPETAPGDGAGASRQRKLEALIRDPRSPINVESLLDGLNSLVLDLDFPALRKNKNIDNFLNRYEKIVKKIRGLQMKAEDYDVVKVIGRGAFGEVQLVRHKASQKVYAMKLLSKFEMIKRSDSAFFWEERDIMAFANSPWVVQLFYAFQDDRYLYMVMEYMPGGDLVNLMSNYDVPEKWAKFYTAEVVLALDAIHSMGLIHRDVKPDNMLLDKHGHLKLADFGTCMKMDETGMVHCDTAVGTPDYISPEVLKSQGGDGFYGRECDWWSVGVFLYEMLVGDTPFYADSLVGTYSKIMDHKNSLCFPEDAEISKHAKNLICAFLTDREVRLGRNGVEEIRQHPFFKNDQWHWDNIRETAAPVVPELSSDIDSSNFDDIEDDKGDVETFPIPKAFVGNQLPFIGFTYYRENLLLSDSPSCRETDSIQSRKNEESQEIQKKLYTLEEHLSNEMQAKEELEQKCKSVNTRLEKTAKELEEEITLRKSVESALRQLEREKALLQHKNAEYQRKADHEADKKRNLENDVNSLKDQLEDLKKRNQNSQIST

CHEK2 (CHK2) = CHEK2 (CHK2) (UniProt O96017 1-543, limits assumed)
Sequence of CHEK2 (CHK2) (O96017 whole entry): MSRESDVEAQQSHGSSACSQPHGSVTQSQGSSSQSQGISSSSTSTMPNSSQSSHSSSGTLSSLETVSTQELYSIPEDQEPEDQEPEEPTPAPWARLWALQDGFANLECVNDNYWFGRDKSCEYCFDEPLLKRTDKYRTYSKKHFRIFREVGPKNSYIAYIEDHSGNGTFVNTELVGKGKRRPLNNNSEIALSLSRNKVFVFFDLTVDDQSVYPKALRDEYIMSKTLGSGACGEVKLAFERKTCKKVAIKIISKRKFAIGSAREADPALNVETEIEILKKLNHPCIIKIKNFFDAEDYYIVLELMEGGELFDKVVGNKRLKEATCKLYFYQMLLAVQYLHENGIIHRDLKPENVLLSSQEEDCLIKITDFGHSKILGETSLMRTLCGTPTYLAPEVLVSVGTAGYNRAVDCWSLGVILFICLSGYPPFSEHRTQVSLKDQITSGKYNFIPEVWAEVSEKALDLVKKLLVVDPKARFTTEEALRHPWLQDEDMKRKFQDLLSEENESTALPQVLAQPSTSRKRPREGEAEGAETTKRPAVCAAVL

DAPK3 (ZIPK) = DAPK3 (ZIPK) (UniProt O43293 1-454, limits assumed)
Sequence of DAPK3 (ZIPK) (O43293 whole entry): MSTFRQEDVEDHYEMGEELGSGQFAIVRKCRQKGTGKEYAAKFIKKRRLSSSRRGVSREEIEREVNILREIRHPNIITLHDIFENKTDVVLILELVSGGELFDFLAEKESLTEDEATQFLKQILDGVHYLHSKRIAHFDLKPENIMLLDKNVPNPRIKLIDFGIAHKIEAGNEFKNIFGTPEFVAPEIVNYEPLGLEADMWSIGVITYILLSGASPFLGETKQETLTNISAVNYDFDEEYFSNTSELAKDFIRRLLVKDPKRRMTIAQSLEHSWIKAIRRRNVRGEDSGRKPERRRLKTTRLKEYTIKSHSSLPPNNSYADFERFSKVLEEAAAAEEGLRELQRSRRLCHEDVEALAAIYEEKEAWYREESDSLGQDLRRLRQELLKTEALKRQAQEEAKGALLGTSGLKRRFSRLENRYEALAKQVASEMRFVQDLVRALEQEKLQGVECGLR

MATK (HYL) = molecular target: T5, MATK (HYL) (UniProt P42679 1-507, limits assumed)
T5 sequence (looked up): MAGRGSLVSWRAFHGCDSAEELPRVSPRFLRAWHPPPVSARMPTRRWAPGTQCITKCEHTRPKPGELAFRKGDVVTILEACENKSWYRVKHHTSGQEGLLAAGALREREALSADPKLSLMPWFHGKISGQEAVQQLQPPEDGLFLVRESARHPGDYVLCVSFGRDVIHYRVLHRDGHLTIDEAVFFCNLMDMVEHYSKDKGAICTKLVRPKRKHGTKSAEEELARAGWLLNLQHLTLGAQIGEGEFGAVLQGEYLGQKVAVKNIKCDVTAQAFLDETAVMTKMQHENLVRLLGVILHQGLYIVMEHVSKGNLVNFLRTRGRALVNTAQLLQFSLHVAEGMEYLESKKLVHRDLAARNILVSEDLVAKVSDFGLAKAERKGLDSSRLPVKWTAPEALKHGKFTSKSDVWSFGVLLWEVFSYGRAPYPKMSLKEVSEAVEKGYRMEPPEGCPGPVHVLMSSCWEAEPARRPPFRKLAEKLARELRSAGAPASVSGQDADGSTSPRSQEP
Further: test concentration or dose not given here.

Sequence of ABL1 G250E (P00519 whole entry G250E): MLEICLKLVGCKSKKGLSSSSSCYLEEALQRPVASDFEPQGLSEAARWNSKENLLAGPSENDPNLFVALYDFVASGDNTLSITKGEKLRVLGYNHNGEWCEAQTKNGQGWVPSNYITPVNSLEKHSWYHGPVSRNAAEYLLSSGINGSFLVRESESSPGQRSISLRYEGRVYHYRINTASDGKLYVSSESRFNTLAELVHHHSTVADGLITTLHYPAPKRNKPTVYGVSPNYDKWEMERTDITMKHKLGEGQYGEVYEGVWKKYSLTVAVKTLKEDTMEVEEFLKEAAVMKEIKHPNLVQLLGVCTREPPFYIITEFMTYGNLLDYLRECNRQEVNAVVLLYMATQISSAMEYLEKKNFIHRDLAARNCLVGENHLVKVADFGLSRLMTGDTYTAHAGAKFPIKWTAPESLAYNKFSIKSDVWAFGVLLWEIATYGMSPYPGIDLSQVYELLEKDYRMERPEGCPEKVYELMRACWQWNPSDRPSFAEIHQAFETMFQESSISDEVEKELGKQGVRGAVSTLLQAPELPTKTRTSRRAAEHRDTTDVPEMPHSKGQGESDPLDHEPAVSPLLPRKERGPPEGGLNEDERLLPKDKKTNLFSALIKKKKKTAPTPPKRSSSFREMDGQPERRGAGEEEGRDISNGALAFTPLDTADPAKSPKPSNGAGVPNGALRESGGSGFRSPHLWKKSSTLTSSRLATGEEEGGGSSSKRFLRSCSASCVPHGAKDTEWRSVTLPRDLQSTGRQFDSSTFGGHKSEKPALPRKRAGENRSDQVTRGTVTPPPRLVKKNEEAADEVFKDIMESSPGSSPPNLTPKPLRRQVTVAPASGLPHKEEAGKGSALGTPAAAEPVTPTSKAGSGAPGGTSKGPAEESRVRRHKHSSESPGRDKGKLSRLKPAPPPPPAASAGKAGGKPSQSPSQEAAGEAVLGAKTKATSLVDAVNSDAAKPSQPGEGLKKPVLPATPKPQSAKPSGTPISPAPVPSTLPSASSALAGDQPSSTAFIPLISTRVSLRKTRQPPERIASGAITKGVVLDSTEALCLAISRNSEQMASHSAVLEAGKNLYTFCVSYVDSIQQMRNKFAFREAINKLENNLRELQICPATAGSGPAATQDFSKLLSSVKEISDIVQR

SGRPPMIVWFNRPFLIAVSHTHGQTILFMAKVINPVGA [D3 peptide]
% Inhibition mean (ABL1 G250E): 50.7%
% Inhibition mean (PRKCA (PKC alpha)): 45.1%
% Inhibition mean (PRKCZ (PKC zeta)): 74.4%
% Inhibition mean [1]: 101%
% Inhibition mean [2]: 100%
% Inhibition mean [3]: 93.1%
% Inhibition mean (NEK2): 89.6%
% Inhibition mean [4]: 88%
% Inhibition mean (MERTK (cMER)): 79.5%
% Inhibition mean (TYK2): 70.5%
% Inhibition mean (ROCK2): 66.7%
% Inhibition mean (CHEK2 (CHK2)): 62.1%
% Inhibition mean (DAPK3 (ZIPK)): 62%
% Inhibition mean (MATK (HYL)): 55.6%
